Measurements taken from US20240294594A1 (CYTUNE PHARMA, published 2024).
Residue numbers refer to the chain shown, from its start. Numbers in names are those of the source. Values belong to the binder of their own block, whether it stands above or below them.

Columns and labels:
[1] = target: PD-1 (on PD-1 Effector Cells of the Promega PD-1/PD-L1 Blockade Bioassay) (UniProt Q15116 25-288, limits assumed); test: cell-based or functional assay
FcγRIIIa F158 [2] = target: T1, FcγRIIIa F158 (human, UniProt P08637 17-208, limits assumed); test: SPR (Biacore 8K), receptor captured via anti-His antibody
T1 construct: also called hFcγRIIIaF158; CD16a F158
T1 sequence (P08637 17-208 limits assumed): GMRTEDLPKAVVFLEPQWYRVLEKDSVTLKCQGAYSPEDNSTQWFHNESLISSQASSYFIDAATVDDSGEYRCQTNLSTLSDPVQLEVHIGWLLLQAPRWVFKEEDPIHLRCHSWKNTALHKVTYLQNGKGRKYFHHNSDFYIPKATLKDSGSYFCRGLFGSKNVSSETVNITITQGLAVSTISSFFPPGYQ
Description: (§1) SPR experiments were performed on a Biacore 8K (Cytiva, Chicago, IL, USA), using CM5 sensor chips (Cytiva) with an immobilization using THE His tag antibodies (Genscript). FcγRIIIa V158, FcγRIIIa F158 or FcγRIIb protein were used for capture with a contact time of 30 sec at a flow rate of […] in a 1×HBS-EP+ running buffer. Association/dissociation rates were measured for each tested immunocytokine at a flow rate of 30 μl/min with concentration serial dilution in a suitable range with an association time/dissociation time of 300 s/300 s except for constructs with DLE and DE with and without afucosylation, where association/dissociation time of 120 s/1200 s was applied.

FcγRIIb = target: T2, FcγRIIb (UniProt P31994 46-217, limits assumed); test: as above
T2 construct: also called FcgRIIb
T2 sequence (looked up): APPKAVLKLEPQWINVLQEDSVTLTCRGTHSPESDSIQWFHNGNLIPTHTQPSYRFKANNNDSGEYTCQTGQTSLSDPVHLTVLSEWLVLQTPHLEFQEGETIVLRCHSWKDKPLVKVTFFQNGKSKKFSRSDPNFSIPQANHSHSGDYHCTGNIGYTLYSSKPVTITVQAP
Description: as §1

FcγRIIIa V158 [3] = target: T3, FcγRIIIa V158 (human, UniProt P08637 17-208, limits assumed); test: as above
T3 construct: also called hFcγRIIIaV158; CD16a V158
T3 sequence (P08637 17-208 F176V limits assumed): as the sequence (P08637 17-208 limits assumed) above, with F160V counted along it
Description: as §1

FcγRIIIa F158 [4] = target: T1, FcγRIIIa F158; test: SPR (Biacore 8K), ratio of 1/Kd values
Description: as §1

FcγRIIIa V158 [5] = target: T3, FcγRIIIa V158; test: SPR (Biacore 8K), ratio of 1/Kd values
Description: as §1

IL-2/IL-15Rβγ (on cells) [6] = target: T4, IL-2/IL-15Rβγ (on cells) (UniProt P14784 27-551; P31785 23-369, limits assumed); test: cell-based or functional assay
T4 sequence (looked up) 1: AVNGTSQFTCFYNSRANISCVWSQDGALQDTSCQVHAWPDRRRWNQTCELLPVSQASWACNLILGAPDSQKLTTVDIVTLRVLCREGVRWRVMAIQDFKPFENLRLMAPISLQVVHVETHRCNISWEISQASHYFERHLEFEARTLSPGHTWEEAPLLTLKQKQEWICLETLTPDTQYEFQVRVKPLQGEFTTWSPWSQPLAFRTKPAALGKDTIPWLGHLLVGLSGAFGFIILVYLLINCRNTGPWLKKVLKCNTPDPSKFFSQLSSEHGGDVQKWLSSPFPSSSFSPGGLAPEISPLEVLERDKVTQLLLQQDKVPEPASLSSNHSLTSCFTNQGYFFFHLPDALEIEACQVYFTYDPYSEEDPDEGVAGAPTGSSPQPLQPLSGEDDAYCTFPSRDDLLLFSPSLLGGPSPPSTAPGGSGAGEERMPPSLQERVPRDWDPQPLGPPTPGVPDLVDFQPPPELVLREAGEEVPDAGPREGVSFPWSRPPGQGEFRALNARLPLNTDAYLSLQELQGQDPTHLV
T4 sequence (looked up) 2: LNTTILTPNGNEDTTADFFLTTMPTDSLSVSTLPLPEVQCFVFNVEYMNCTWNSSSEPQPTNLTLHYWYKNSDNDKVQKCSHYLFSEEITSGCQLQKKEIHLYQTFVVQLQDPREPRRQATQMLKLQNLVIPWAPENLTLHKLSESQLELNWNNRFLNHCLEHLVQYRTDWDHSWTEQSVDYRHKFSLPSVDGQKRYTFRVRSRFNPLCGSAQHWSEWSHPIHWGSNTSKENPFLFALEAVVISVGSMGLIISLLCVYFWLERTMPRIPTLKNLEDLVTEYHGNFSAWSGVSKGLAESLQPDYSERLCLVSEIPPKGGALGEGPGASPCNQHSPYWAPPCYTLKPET

IL-2/IL-15Rβγ (on cells) [7] = target: T4, IL-2/IL-15Rβγ (on cells); test: cell-based or functional assay; remark: listed apart in the source

Sequence of PD-1 (on PD-1 Effector Cells of the Promega PD-1/PD-L1 Blockade Bioassay) (Q15116 25-288 limits assumed): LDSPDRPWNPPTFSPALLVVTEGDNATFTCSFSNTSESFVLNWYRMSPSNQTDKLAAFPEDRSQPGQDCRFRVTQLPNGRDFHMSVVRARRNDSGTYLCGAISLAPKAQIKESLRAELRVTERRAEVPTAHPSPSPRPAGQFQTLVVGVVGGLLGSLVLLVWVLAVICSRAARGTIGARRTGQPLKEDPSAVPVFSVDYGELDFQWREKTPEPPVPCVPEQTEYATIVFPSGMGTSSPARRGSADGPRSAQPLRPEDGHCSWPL

B1: PEM LE/YTE-RLI NA x1 (other)
heavy 1: QVQLVQSGVEVKKPGASVKVSCKASGYTFTNYYMYWVRQAPGQGLEWMGGINPSNGGTNFNEKFKNRVTLTTDSSTTTAYMELKSLQFDDTAVYYCARRDYRFDMGFDYWGQGTTVTVSSASTKGPSVFPLAPCSRSTSESTAALGCLVKDYFPEPVTVSWNSGALTSGVHTFPAVLQSSGLYSLSSVVTVPSSSLGTKTYTCNVDHKPSNTKVDKRVESKYGPPCPPCPAPEFEGGPSVFLFPPKPKDTLYITREPEVTCVVVDVSQEDPEVQFNWYVDGVEVHNAKTKPREEQFNSTYRVVSVLTVLHQDWLNGKEYKCKVSNKGLPSSIEKTISKAKGQPREPQVYTLPPSQEEMTKNQVSLWCLVKGFYPSDIAVEWESNGQPENNYKTTPPVLDSDGSFFLYSRLTVDKSRWQEGNVFSCSVMHEALHNHYTQKSLSLSLGITCPPPMSVEHADIWVKSYSLYSRERYICNSGFKRKAGTSSLTECVLNKATNVAHWTTPSLKCIRDPALVHQRPAPPSGGSGGGGSGGGSGGGGSGGNWVNVISDLKKIEDLIQSMHIDATLYTESDVHPSCKVTAMKCFLLELQVISLESGDASIHDTVEALIILANNSLSSNAQVTESGCKECEELEEKNIKEFLQSFVHIVQMFINTS
heavy 2: QVQLVQSGVEVKKPGASVKVSCKASGYTFTNYYMYWVRQAPGQGLEWMGGINPSNGGTNFNEKFKNRVTLTTDSSTTTAYMELKSLQFDDTAVYYCARRDYRFDMGFDYWGQGTTVTVSSASTKGPSVFPLAPCSRSTSESTAALGCLVKDYFPEPVTVSWNSGALTSGVHTFPAVLQSSGLYSLSSVVTVPSSSLGTKTYTCNVDHKPSNTKVDKRVESKYGPPCPPCPAPEFEGGPSVFLFPPKPKDTLYITREPEVTCVVVDVSQEDPEVQFNWYVDGVEVHNAKTKPREEQFNSTYRVVSVLTVLHQDWLNGKEYKCKVSNKGLPSSIEKTISKAKGQPREPQVYTLPPSQEEMTKNQVSLSCAVKGFYPSDIAVEWESNGQPENNYKTTPPVLDSDGSFFLVSRLTVDKSRWQEGNVFSCSVMHEALHNHYTQKSLSLSLG
light: EIVLTQSPATLSLSPGERATLSCRASKGVSTSGYSYLHWYQQKPGQAPRLLIYLASYLESGVPARFSGSGSGTDFTLTISSLEPEDFAVYYCQHSRDLPLTFGGGTKVEIKRTVAAPSVFIFPPSDEQLKSGTASVVCLLNNFYPREAKVQWKVDNALQSGNSQESVTEQDSKDSTYSLSSTLTLSKADYEKHKVYACEVTHQGLSSPVTKSFNRGEC
EC50 [pM], PD-1/PD-L1 Blockade Bioassay (Promega) [1]: 1440 pM

B2: hCl1a AAA-RLI DANA (other)
heavy 1: QVQLVQSGAEVKKPGASVKVSCKASGYTFTDYAMHWVRQAPGQRLEWMGWINTYTGKPTYAQKFQGRVTITRDTSASTAYMELSSLRSEDTAVYYCARAVFYGYTMDAWGQGTLVTVSSASTKGPSVFPLAPSSKSTSGGTAALGCLVKDYFPEPVTVSWNSGALTSGVHTFPAVLQSSGLYSLSSVVTVPSSSLGTQTYICNVNHKPSNTKVDKKVEPKSCDKTHTCPPCPAPELLGGPSVFLFPPKPKDTLMISRTPEVTCVVVDVSHEDPEVKFNWYVDGVEVHNAKTKPREEQYNATYRVVSVLTVLHQDWLNGKEYKCKVSNKALPAPIAATISKAKGQPREPQVYTLPPSRDELTKNQVSLWCLVKGFYPSDIAVEWESNGQPENNYKTTPPVLDSDGSFFLYSKLTVDKSRWQQGNVFSCSVMHEALHNHYTQKSLSLSPGITCPPPMSVEHADIWVKSYSLYSRERYICNSGFKRKAGTSSLTECVLNKATNVAHWTTPSLKCIRDPALVHQRPAPPSGGSGGGGSGGGSGGGGSGGNWVNVISDLKKIEDLIQSMHIDATLYTESDVHPSCKVTAMKCFLLELQVISLESGDASIHATVEALIILANNSLSSNAQVTESGCKECEELEEKNIKEFLQSFVHIVQMFINTS
heavy 2: QVQLVQSGAEVKKPGASVKVSCKASGYTFTDYAMHWVRQAPGQRLEWMGWINTYTGKPTYAQKFQGRVTITRDTSASTAYMELSSLRSEDTAVYYCARAVFYGYTMDAWGQGTLVTVSSASTKGPSVFPLAPSSKSTSGGTAALGCLVKDYFPEPVTVSWNSGALTSGVHTFPAVLQSSGLYSLSSVVTVPSSSLGTQTYICNVNHKPSNTKVDKKVEPKSCDKTHTCPPCPAPELLGGPSVFLFPPKPKDTLMISRTPEVTCVVVDVSHEDPEVKFNWYVDGVEVHNAKTKPREEQYNATYRVVSVLTVLHQDWLNGKEYKCKVSNKALPAPIAATISKAKGQPREPQVYTLPPSRDELTKNQVSLSCAVKGFYPSDIAVEWESNGQPENNYKTTPPVLDSDGSFFLVSKLTVDKSRWQQGNVFSCSVMHEALHNHYTQKSLSLSPG
light: DIQMTQSPSSLSASVGDRVTITCRASEDIYSNLAWYQQKPGKAPKLLIFSVKRLQDGVPSRFSGSGSGTDFTLTISSLQPEDFATYYCLQGSNFPLTFGQGTKVEIKRTVAAPSVFIFPPSDEQLKSGTASVVCLLNNFYPREAKVQWKVDNALQSGNSQESVTEQDSKDSTYSLSSTLTLSKADYEKHKVYACEVTHQGLSSPVTKSFNRGEC
notes: Immunocytokine; also called SOT202-AAA-DANA
Kd (FcγRIIIa F158 [2]): 101 nM
Kd (FcγRIIb): 24.6 µM
Kd (FcγRIIIa V158 [3]): 35.6 nM
A/I (F158), affinity towards FcγRIIIa over affinity towards FcγRIIb (FcγRIIIa F158 [4]): 244 ratio
A/I (V158), affinity towards FcγRIIIa over affinity towards FcγRIIb (FcγRIIIa V158 [5]): 691 ratio

B6: RLI2 mutein D30N/E64Q/N65D (NQD) of Table 13 (ligand)
chain: ITCPPPMSVEHADIWVKSYSLYSRERYICNSGFKRKAGTSSLTECVLNKATNVAHWTTPSLKCIRDPALVHQRPAPPSGGSGGGGSGGGSGGGGSGGNWVNVISDLKKIEDLIQSMHIDATLYTESNVHPSCKVTAMKCFLLELQVISLESGDASIHDTVQDLIILANNSLSSNGNVTESGCKECEELEEKNIKEFLQSFVHIVQMFINTS
Potency in vitro (kit225) (IL-2/IL-15Rβγ (on cells) [6]): -15700 x (fold against RLI2 wt)

B7: RLI DANAQD (ligand)
chain: B6 chain with N127D, D158A, Q161E, D162A, Q198D
EC50 kit225 cells [pM] (IL-2/IL-15Rβγ (on cells) [7]): 106000 pM

The remaining lines, values ahead:

Kd (FcγRIIIa F158 [2]): 11.6 nM
Kd (FcγRIIb): 2.65 µM
Kd (FcγRIIIa V158 [3]): 5.71 nM
A/I (F158), affinity towards FcγRIIIa over affinity towards FcγRIIb (FcγRIIIa F158 [4]): 228 ratio
A/I (V158), affinity towards FcγRIIIa over affinity towards FcγRIIb (FcγRIIIa V158 [5]): 464 ratio
B3: hCl1a DLE-RLI DANA (other)
heavy 1: B2 heavy 1 with S241D, A300S, A332L, I334E, A335E, A336K
heavy 2: B2 heavy 2 with S241D, A300S, A332L, I334E, A335E, A336K
light: B2 light
notes: Immunocytokine; also called SOT202-DLE-DANA

Kd (FcγRIIIa F158 [2]): 46.1 nM
Kd (FcγRIIb): 17.5 µM
Kd (FcγRIIIa V158 [3]): 17.3 nM
A/I (F158), affinity towards FcγRIIIa over affinity towards FcγRIIb (FcγRIIIa F158 [4]): 380 ratio
A/I (V158), affinity towards FcγRIIIa over affinity towards FcγRIIb (FcγRIIIa V158 [5]): 1010 ratio
B4: hCl1a AAA-RLI DANA afuc (other)
heavy 1: B2 heavy 1
heavy 2: B2 heavy 2
light: B2 light
modifications: afucosylated Fc N-glycan

Kd (FcγRIIIa F158 [2]): 0.237 nM
Kd (FcγRIIb): 2.22 µM
Kd (FcγRIIIa V158 [3]): 0.162 nM
A/I (F158), affinity towards FcγRIIIa over affinity towards FcγRIIb (FcγRIIIa F158 [4]): 9370 ratio
A/I (V158), affinity towards FcγRIIIa over affinity towards FcγRIIb (FcγRIIIa V158 [5]): 13700 ratio
B5: hCl1a DLE-RLI DANA afuc (other)
heavy 1: B2 heavy 1 with S241D, A300S, A332L, I334E, A335E, A336K
heavy 2: B2 heavy 2 with S241D, A300S, A332L, I334E, A335E, A336K
light: B2 light
modifications: afucosylated Fc N-glycan
notes: Afucosylated form of hCl1a DLE-RLI DANA
